Data taken from article PMC12491437 (Nature Communications, 2025).
Values joined by “and” are separate entries in the source; they are usually repeats but may differ in a detail not shown here. Identical values can stand only once.

How the values were obtained:
[1] = target: D2R V96S, FLAG-D2R-Rluc8 / FLAG-D2R-Venus (UniProt P14416); test: FRET or BRET; β-arrestin recruitment BRET in HEK293 cells: D2R-Rluc8 donor, βarr1-YFP or βarr2-YFP acceptor, 5 μM coelenterazine-h; basal (PBS) and after quinpirole (10 μM time course over 5 min, fitted to a one-phase association; 1 nM-1 mM concentration response)
D2R V97C, FLAG-D2R-Rluc8 = D2R V97C, FLAG-D2R-Rluc8 (UniProt P14416); test: as above
[2] = target: D2R Y93C, FLAG-D2R-Rluc8 / FLAG-D2R-Venus (UniProt P14416); test: as above
[3] = target: D2R V96C, FLAG-D2R-Rluc8 / FLAG-D2R-Venus (UniProt P14416); test: as above
[4] = target: D2 dopamine receptor (D2R) wild type, FLAG-D2R-Rluc8 / FLAG-D2R-Venus (UniProt P14416); test: as above
[5] = target: the molecule itself; test: PD-PALM (single-molecule localisation microscopy, TIRF, neighbourhood analysis); cell surface FLAG-D2R on HEK293 cells labelled with anti-FLAG-CAGE500 (1:1), fixed; Getis-Franklin neighbourhood analysis, search radius 50 nm; basal or after 5 min 10 μM quinpirole

## β-arrestin-2-YFP (from UniProt P32121 1-409) (natural protein)
[1]
  half time of quinpirole-induced recruitment: 39.4 s
  initial rate of quinpirole-induced recruitment (BRET ratio units per second): 0.0007
  k (rate constant of quinpirole-induced recruitment, one-phase association fit): 0.027 s⁻¹
D2R V97C, FLAG-D2R-Rluc8
  half time of quinpirole-induced recruitment: 32.7 s
  initial rate of quinpirole-induced recruitment (BRET ratio units per second): 0.000181
  k (rate constant of quinpirole-induced recruitment, one-phase association fit): 0.00443 s⁻¹
[2]
  half time of quinpirole-induced recruitment: 34.6 s
  initial rate of quinpirole-induced recruitment (BRET ratio units per second): 0.000113
  k (rate constant of quinpirole-induced recruitment, one-phase association fit): 0.00333 s⁻¹
[3]
  half time of quinpirole-induced recruitment: 35.5 s
  initial rate of quinpirole-induced recruitment (BRET ratio units per second): 0.001
  k (rate constant of quinpirole-induced recruitment, one-phase association fit): 0.02 s⁻¹
[4]
  half time of quinpirole-induced recruitment: 68.4 s and 30.3 s and 41.1 s

B1: D2R V96S/V97C, FLAG-D2R-Rluc8 / FLAG-D2R-Venus (receptor, UniProt P14416 1-443, looked up)
chain: MDPLNLSWYDDDLERQNWSRPFNGSDGKADRPHYNYYATLLTLLIAVIVFGNVLVCMAVSREKALQTTTNYLIVSLAVADLLVATLVMPWVVYLESCGEWKFSRIHCDIFVTLDVMMCTASILNLCAISIDRYTAVAMPMLYNTRYSSKRRVTVMISIVWVLSFTISCPLLFGLNNADQNECIIANPAFVVYSSIVSFYVPFIVTLLVYIKIYIVLRRRRKRVNTKRSSRAFRAHLRAPLKGNCTHPEDMKLCTVIMKSNGSFPVNRRRVEAARRAQELEMEMLSSTSPPERTRYSPIPPSHHQLTLPDPSHHGLHSTPDSPAKPEKNGHAKDHPKIAKIFEIQTMPNGKTRTSLKTMSRRKLSQQKEKKATQMLAIVLGVFIICWLPFFITHILNIHCDCNIPPVLYSAFTWLGYVNSAVNPIIYTTFNIEFRKAFLKILHC
notes: D2 dopamine receptor; mutant made from the FLAG-D2R-Rluc8 plasmid by site-directed mutagenesis; The mutant was also moved into the FLAG-D2R-Venus plasmid for saturation BRET; also called Mut2; D2R-Rluc8 V96S/V97C; source: HEK293, transfected; in intact cells (BRET, PD-PALM) and in lysate (Western blot); not shown: FLAG, N-terminal, kept; Rluc8 (donor copy)
[5]
  increase of receptors in oligomers relative to D2R WT: ~6%
